{
  "source": "patent US12187785B2",
  "about": "“Recombinant protein and fragments thereof, method for producing said recombinant protein, synthetic gene and use of sculptin or recombinant protein for preparing a medicament or pharmaceutical composition for the prophylaxis and/or treatment of thromboembolic diseases or as a direct and specific …” (priority 2017, dated 2025)",
  "key": {"[1]": {"molecular_target": "T1, thrombin (Homo sapiens, UniProt P00734)", "assay": "Incubation without serine protease in phosphate buffer, then thrombin inhibition test", "type": "in vitro ADME", "set-up": "Brown and cyan colors represent heavy and light chain of thrombin respectively", "settings": "pH 7.4", "experimental": "Recombinant protein (10 μM) was incubated with or without serine protease 1 μM (thrombin, plasmin, trypsin or factor Xa) in phosphate buffer 50 mM containing NaCl 150 mM and 0.1% of PEG 6000, pH 7.4 for 4, 6, 7 or 18 h at 37° C. Reaction mixtures (20 μl) were split by SDS-PAGE. (A) hydrolysis SDS-PAGE (15%) of recombinant protein by serine proteases following 6 h of incubation. (B) Percentage of thrombin inhibition by recombinant protein following 6 h of incubation with serine protease (see experimental procedures). (C) hydrolysis SDS-PAGE (15%) of recombinant protein by serine proteases following 18 h of incubation. (D) Percentage of thrombin inhibition by recombinant protein following 18 h of incubation with serine protease (see experimental procedures). Numbering of (B) and (D) corresponds to numbering of (A) and (C), respectively, and recombinant protein control is represented by CTRL. […]\n(§1) Afterwards, it was determined whether serine proteases, like thrombin, plasmin, factor Xa and trypsin, hydrolyze recombinant protein. […] Upon addition of chromogenic substrate S-2238, the hydrolysis thereof by thrombin was monitored in spectrophotometer way. […]"}, "[2]": {"tested_on": "isolated human plasma", "assay": "Prothrombin time (PT) in isolated human plasma", "type": "biochemical", "settings": "plasma of healthy human volunteers, incubation 3 min. at 37° C.", "experimental": "(§2) Plasma was obtained from blood of healthy human volunteer and incubated with different concentrations of recombinant protein. APTT, PT and TT were determined like experimental procedure. (A) Activated partial thromboplastin time (B) prothrombin time and (C) thrombin time. Ctrl is related to plasma and Sal is related to plasma plus saline.\n(§3) Finally, PT, aPTT and TT were assessed in isolated plasma of healthy human volunteers following incubation with recombinant protein for 3 min. at 37° C. […] Maximum test reading for aPTT was achieved following 12 nM, while for PT that was achieved following 6 nM of recombinant protein (FIGS. 11A and 11B)."}, "[3]": {"molecular_target": "T1, thrombin", "assay": "Thrombin inhibition, hydrolysis of chromogenic substrate S-2238", "type": "biochemical", "set-up": "Brown and cyan colors represent heavy and light chain of thrombin respectively"}, "[4]": {"molecular_target": "T2, plasmin (Homo sapiens, UniProt P00747)", "T2 construct": "Serine protease (100 pM; thrombin, plasmin, trypsin or factor Xa) was incubated with recombinant protein", "T2 sequence (P00747 581-810 limits assumed, species assumed)": "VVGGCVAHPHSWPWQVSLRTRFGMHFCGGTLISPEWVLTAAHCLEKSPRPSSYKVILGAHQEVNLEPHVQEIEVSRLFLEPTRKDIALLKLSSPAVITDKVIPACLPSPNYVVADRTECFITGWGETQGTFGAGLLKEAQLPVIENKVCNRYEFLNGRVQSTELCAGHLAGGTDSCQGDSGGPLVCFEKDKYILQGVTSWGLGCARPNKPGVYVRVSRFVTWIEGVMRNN", "T2 sequence (P00747 97-580 limits assumed, species assumed)": "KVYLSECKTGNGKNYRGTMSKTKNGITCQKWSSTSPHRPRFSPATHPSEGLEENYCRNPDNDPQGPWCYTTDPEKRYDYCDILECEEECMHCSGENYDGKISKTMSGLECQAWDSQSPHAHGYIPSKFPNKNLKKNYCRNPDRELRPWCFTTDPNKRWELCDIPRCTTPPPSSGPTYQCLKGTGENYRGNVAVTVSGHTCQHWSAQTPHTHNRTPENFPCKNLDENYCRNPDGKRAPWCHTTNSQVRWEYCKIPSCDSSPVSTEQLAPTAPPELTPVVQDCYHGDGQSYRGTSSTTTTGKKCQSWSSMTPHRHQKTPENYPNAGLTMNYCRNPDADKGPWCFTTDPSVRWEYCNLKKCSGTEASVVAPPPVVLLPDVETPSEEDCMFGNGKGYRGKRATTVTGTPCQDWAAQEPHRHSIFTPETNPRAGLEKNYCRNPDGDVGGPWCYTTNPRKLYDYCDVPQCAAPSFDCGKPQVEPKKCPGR", "assay": "Degradation of recombinant protein by plasmin (SDS-PAGE and residual thrombin inhibition)", "type": "in vitro ADME", "experimental": "Recombinant protein (10 μM) was incubated with or without serine protease 1 μM (thrombin, plasmin, trypsin or factor Xa) in phosphate buffer 50 mM containing NaCl 150 mM and 0.1% of PEG 6000, pH 7.4 for 4, 6, 7 or 18 h at 37° C. Reaction mixtures (20 μl) were split by SDS-PAGE. (A) hydrolysis SDS-PAGE (15%) of recombinant protein by serine proteases following 6 h of incubation. (B) Percentage of thrombin inhibition by recombinant protein following 6 h of incubation with serine protease (see experimental procedures). (C) hydrolysis SDS-PAGE (15%) of recombinant protein by serine proteases following 18 h of incubation. (D) Percentage of thrombin inhibition by recombinant protein following 18 h of incubation with serine protease (see experimental procedures). Numbering of (B) and (D) corresponds to numbering of (A) and (C), respectively, and recombinant protein control is represented by CTRL. Recombinant protein (strip 1); thrombin (strip 2) and thrombin with recombinant protein (strip 3); plasmin (strip 4) and plasmin with recombinant protein (strip 5); trypsin (strip 6) and trypsin with recombinant protein (strip 7); factor Xa (strip 8) and factor Xa with recombinant protein (strip 9) and protein marker (strip 10; in A). (E) Identification of cleavage sites of thrombin in recombinant protein following 7 h of incubation. (F) Identification of cleavage sites of factor Xa in recombinant protein following 4 h of incubation. Cleavage sites of thrombin and factor Xa in recombinant protein sequence are shown in FIGS. S1 and S2, respectively. Experimental procedure for (C), (D), (E) and (F) was the same as for (A) and (B), except the incubation time and the type of serine protease used. FIG. 5 discloses “GKPQG” as SEQ ID NO: 18, “MPKGG” as SEQ ID NO: 19, and “SDAVH” as SEQ ID NO: 20.\nas §1"}, "[5]": {"tested_on": "isolated human plasma", "assay": "Thrombin time (TT) in isolated human plasma", "type": "biochemical", "settings": "plasma of healthy human volunteers, incubation 3 min. at 37° C.", "experimental": "as §2, §3"}, "[6]": {"molecular_target": "T3, factor Xa (Homo sapiens, UniProt P00742)", "T3 construct": "Serine protease (100 pM; thrombin, plasmin, trypsin or factor Xa) was incubated with recombinant protein; For factor Xa activity, buffer contained phosphatidylserine and phosphatidylcholine 50 μM", "T3 sequence (P00742 235-488 limits assumed)": "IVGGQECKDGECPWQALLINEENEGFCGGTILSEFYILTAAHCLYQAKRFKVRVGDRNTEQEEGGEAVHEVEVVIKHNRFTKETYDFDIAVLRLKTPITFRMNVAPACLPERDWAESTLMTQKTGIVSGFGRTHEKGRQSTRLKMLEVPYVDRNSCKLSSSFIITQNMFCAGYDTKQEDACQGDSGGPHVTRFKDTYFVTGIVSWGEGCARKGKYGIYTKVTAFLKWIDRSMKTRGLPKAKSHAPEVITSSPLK", "T3 sequence (P00742 41-179 limits assumed)": "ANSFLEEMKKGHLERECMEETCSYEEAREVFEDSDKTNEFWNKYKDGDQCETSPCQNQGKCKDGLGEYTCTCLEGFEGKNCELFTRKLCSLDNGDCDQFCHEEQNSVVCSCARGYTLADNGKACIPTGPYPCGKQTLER", "assay": "Serine protease inhibition test, factor Xa (chromogenic substrate)", "type": "biochemical", "settings": "recombinant protein 1, 100, 200 nM; protease 100 pM; 6 h at 37° C.", "experimental": "(A) Inhibition of serine proteases through recombinant protein. Serine protease (100 pM; thrombin, plasmin, trypsin or factor Xa) was incubated with recombinant protein (1, 100 and 200 nM) in phosphate buffer 50 mM containing NaCl 150 mM and 0.1% of PEG 6000, pH 7.4 for 6 h at 37° C. Following addition of chromogenic substrate corresponding to reaction mixture, hydrolysis thereof was monitored at 405 nm. For factor Xa activity, buffer contained phosphatidylserine and phosphatidylcholine 50 μM. […] (B) Typical curves for hydrolysis of chromogenic substrate S-2238 (15 μM) by thrombin 0.1 nM in absence (trace a) or presence of recombinant protein (trace b, 15 pM; trace c, 30 pM; trace d, 60 pM and trace e, 100 pM) in phosphate buffer 50 mM containing NaCl 150 mM and 0.1% of PEG 6000, pH 7.4 at 37° C. (C) Residual activity of thrombin in presence of increasing concentration of recombinant protein. (D) Dose-response curves for thrombin inhibition by recombinant protein. Percentage of thrombin inhibition was plotted versus the concentration record of recombinant protein. Experimental condition of (C) and (D) is the same as in (B).\nThe first performed experiment was the test of serine proteases inhibition through recombinant protein. […] Hydrolysis of a chromogenic substrate through serine proteases in the presence and absence of recombinant protein was monitored in a spectrophotometer way. […]"}, "[7]": {"settings": "from plot of Kobs versus recombinant protein concentration"}},
  "data": [
    {"molecule": "GKPQGHPHDALEARSDAVHTAVPKMPKGGHGGFEPIPIDYDERALEARSDAVHTAVPKMPKGGLGGFEPIPIDYDERALEARSDAVHTAVPKMPKGGHGGFEPIPIDYDERALEARSDAVHTAVPKMPKGGHGGFEPIPIDYDERALHALEHHHHHH (protein, Sculptin recombinat protein, recombinant His-tagged protein modified from tick sculptin, expressed in E. coli) GKPQGHPHDALEARSDAVHTAVPKMPKGGHGGFEPIPIDYDERALEARSDAVHTAVPKMPKGGLGGFEPIPIDYDERALEARSDAVHTAVPKMPKGGHGGFEPIPIDYDERALEARSDAVHTAVPKMPKGGHGGFEPIPIDYDERALHALEHHHHHH", "values": [
      {"measurement": "thrombin inhibition after incubation without serine protease", "setting": "[1]; 6 h at 37° C., control is 100 pM of fresh recombinant protein", "result": "inhibited thrombin in similar way to control"},
      {"measurement": "thrombin inhibition after incubation without serine protease", "setting": "[1]; 18 h at 37° C., control of fresh recombinant protein", "result": "inhibited thrombin in similar way to control"},
      {"measurement": "PT", "setting": "[2]", "result": "prolonged by recombinant protein in concentration-dependent way"},
      {"measurement": "concentration at which maximum test reading for PT was achieved", "setting": "[2]", "result": 6, "unit": "nM"},
      {"measurement": "Koff", "setting": "[3]; [7]", "result": "0.65±0.04×10^−3 s^−1"},
      {"measurement": "Kon", "setting": "[3]; [7]", "result": "4.04±0.03×10^7 M^−1 s^−1"},
      {"measurement": "decrease of residual activity of thrombin", "setting": "[3]; recombinant protein 1 nM, thrombin 100 pM, 6 h at 37° C., pH 7.4", "result": "about 97%"},
      {"measurement": "Inhibition Type", "setting": "[3]; this study", "result": "Competing"},
      {"measurement": "SDS-PAGE strip of 20-kDa (non-digested recombinant protein)", "setting": "[4]; 10 μM protein with 1 μM plasmin, 6 h at 37° C.", "result": "completely disappeared"},
      {"measurement": "SDS-PAGE strip of 20-kDa (recombinant protein monomer)", "setting": "[4]; 10 μM protein with 1 μM plasmin, 18 h at 37° C.", "result": "completely disappeared"},
      {"measurement": "thrombin inhibition after incubation", "setting": "[4]; after 18 h incubation with plasmin, diluted to 100 pM", "result": "did not inhibit thrombin"},
      {"measurement": "TT", "setting": "[5]", "result": "prolonged by recombinant protein in peak-molar range"},
      {"measurement": "inhibition of factor Xa", "setting": "[6]", "result": "did not inhibit"}
    ]}
  ]
}
